Assay results: US20190038796

Target: EGF-MMP (recombinant epidermal growth factor with N-terminal PLP reactive site AKT, polyhistidine tag and MMP cleavage site VPLSLYSG)
Sequence (chain, as listed by the source): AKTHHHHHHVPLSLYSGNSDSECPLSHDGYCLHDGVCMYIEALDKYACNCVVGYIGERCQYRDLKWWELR

B1: Recombinant, human pro-MMP-9 expressed in CHO cells, activated with amino-phenyl mercuric acetate (APMA) (protein)
chain: APRQRQSTLVLFPGDLRTNLTDRQLAEEYLYRYGYTRVAEMRGESKSLGPALLLLQKQLSLPETGELDSATLKAMRTPRCGVPDLGRFQTFEGDLKWHHHNITYWIQNYSEDLPRAVIDDAFARAFALWSAVTPLTFTRVYSRDADIVIQFGVAEHGDGYPFDGKDGLLAHAFPPGPGIQGDAHFDDDELWSLGKGVVVPTRFGNADGAACHFPFIFEGRSYSACTTDGRSDGLPWCSTTANYDTDDRFGFCPSERLYTQDGNADGKPCQFPFIFQGQSYSACTTDGRSDGYRWCATTANYDRDKLFGFCPTRADSTVMGGNSAGELCVFPFTFLGKEYSTCTSEGRGDGRLWCATTSNFDSDKKWGFCPDQGYSLFLVAAHEFGHALGLDHSSVPEALMYPMYRFTEGPPLHKDDVNGIRHLYGPRPEPEPRPPTTTTPQPTAPPTVCPTGPPTVHPSERPTAGPTGPPSAGPTGPPTAGPSTATTVPLSPVDDACNVNIFDAIAEIGNQLYLFKDGKYWRFSEGRGSRPQGPFLIADKWPALPRKLDSVFEERLSKKLFFFSGRQVWVYTGASVLGPRRLDKLGLGADVAQVTGALRSGRGKMLLFSGRRLWRFDVKAQMVDPRSASEVDRMFPGVPLDTHDVFQYREKAYFCQDRFYWRVSSRSELNQVDQVGYVTYDILQCPED
conversion to the cleaved product by integration of MALDI-TOF data: over 99% conversion to the cleaved product
molecular weight by MALDI-TOF after incubation with MMP-9 (cleavage): After 2 hours, the molecular weight decreased from 8.16 kDa to 6.64 kDa, in precise agreement with the theoretical molecular weight of cleaved EGFMMP (6.64 kDa)
